The text below walks through data of patent publication US20260356958 (published 2026).

Like-named read-outs stand apart in the source and are kept apart here.

What all share (assay): SPR, 25C
Test [1] deals with hIL-1R3-His (human).
Test [2] addresses hIL-1R3-His (human). This is another data set of the same source.
Test [3] has as its target T1, hIL-36R-His (human).
T1 chain: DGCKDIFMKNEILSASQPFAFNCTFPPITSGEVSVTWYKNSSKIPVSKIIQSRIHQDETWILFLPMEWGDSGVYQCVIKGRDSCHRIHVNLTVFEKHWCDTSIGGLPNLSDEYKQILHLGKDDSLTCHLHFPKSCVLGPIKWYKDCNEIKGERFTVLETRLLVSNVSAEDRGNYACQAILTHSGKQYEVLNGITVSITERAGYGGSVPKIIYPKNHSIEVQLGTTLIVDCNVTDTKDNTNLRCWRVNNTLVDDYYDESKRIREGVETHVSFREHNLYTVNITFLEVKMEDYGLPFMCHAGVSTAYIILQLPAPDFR

In test [4] the target is T1, hIL-36R-His.
Test [5] deals with T1, hIL-36R-His.

Sequence of hIL-1R3-His (human) (chain, as listed by the source): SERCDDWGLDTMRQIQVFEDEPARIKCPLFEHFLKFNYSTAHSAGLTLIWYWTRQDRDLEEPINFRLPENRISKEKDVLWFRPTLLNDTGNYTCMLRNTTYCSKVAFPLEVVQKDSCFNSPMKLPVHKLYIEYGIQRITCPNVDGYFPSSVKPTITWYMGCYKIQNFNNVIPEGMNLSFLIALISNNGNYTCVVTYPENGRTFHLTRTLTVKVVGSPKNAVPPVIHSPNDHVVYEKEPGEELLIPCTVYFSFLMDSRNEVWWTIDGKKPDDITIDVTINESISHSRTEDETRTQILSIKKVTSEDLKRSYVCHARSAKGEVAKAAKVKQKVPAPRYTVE

B1: Crossmab bispecific antibody, IL-1R3 arm (antibody, V domains shown)
VH: EVQLVESGGGLVQPGGSLRLSCAASGFTFSSYAMSWVRQAPGKGLVWVAEISRGGSHTYYPDTVTGRFTISRDNAKNTLYLQMNSLRAEDTAVYYCARSYGNYPFDYWGQGTTVTVSS
VL: EIVLTQSPATLSLSPGERATLSCSASSSVSYMYWYQQKPGQAPRLLIYDTSNLASGIPARFSGSGSGTDFTLTISSLEPEDFAVYYCQQWSSYPLTFGQGTKLEIK
Turning to B1, in the test with hIL-1R3-His [1], the affinity, expressed as Kd, was 0.761 nM.

B2: Common light chain bispecific antibody, IL-1R3 arm (R1B9VH-h1+L36E9VK) (antibody, V domains shown)
VH: EVQLVESGGGLVQPGGSLRLSCAASGFTFSSYAMSWVRQAPGKGLVWVAEISRGGSHTYYPDTVTGRFTISRDNAKNTLYLQMNSLRAEDTAVYYCARSYGNYPFDYWGQGTTVTVSS
VL: EIVLTQSPGTLSLSPGERATLSCRASQSVIGSYLAWYQQKPGQAPRLLIYSASKLASGIPDRFSGSGSGTDFTLTISRLEPEDFAVYYCQQDTRYPITFGQGTKVEIK
Take B2: the Kd with hIL-1R3-His [2] amounted to 1.44 nM.

B3: Common light chain bispecific antibody, IL-36R arm (R72B7VH+L36E9VK) (antibody, V domains shown)
VH: QVQLVQSGAEVKKPGASVKVSCKASGYSFTSSWIHWVKQAPGQGLEWMGEINPGNVRSNYNENFRNKVTMTVDTSISTAYMELSRLRSDDTAVYYCTVINYGEPYFASWGQGTLVTVSS
VL: EIVLTQSPGTLSLSPGERATLSCRASQSVIGSYLAWYQQKPGQAPRLLIYSASKLASGIPDRFSGSGSGTDFTLTISRLEPEDFAVYYCQQDTRYPITFGQGTKVEIK
In the test with hIL-36R-His [3], B3 showed a Kd of 1.29 nM.

B4: Crossmab bispecific antibody, IL-36R arm (antibody, V domains shown)
VH: QVQLVQSGAEVKKPGASVKVSCKASGYSFTSSWIHWVRQAPGQGLEWMGEINPGSGRSNYNENFQGRVTMTVDTSISTAYMELSRLRSDDTAVYYCTVVFYGEPYFPFWGQGTLVTVSS
VL: EIVLTQSPGTLSLSPGERATLSCRASQSVIYSYLAWYQQKPGQAPRLLIYSASKRASGIPDRFSGSGSGTDFTLTISRLEPEDFAVYYCQQHAGIPVTFGQGTKVEIK
Molecule B4 had a Kd with hIL-36R-His [4] of 0.669 nM.

B5: R49E11VH-h3+L26B11VK (antibody, V domains shown)
VH: QVQLVQSGAEVKKPGASVKVSCKASGYSFTSSWIHWVRQAPGQGLEWMGEINPGSGRSNYNENFQGRVTMTVDTSISTAYMELSRLRSDDTAVYYCTVVFYGEPYFPFWGQGTLVTVSS
VL: EIVLTQSPGTLSLSPGERATLSCRASQSVIYSYLAWYQQKPGQAPRLLIYSASKRASGIPDRFSGSGSGTDFTLTISRLEPEDFAVYYCQQHAGIPVTFGQGTKVEIK
B5: in the test with hIL-36R-His [5], the Kd amounted to 2.91 nM.
